Data published in paper PMC6213480, “A Novel Cold-Adapted Leucine Dehydrogenase from Antarctic Sea-Ice Bacterium Pseudoalteromonas sp. ANT178” (Marine Drugs, 2018).

Assays:
Assay in all cases: purified protein
Assay type in all cases: biochemical, Pseudoalteromonas sp. ANT178
Conditions in all cases: oxidative deamination with NAD+, standard assay 0.1 M glycine-NaOH pH 10.4, 1 mM NAD+, 30 °C
[1] = test system: CSCCC(N)C(=O)O
[2] = test system: N[C@@H](Cc1ccc(O)cc1)C(=O)O
[3] = test system: N=C(N)NCCC[C@H](N)C(=O)O
[4] = test system: CC(C)C[C@H](N)C(=O)O

rPsLeuDH (Pseudoalteromonas sp.)
Km [1]: 0.75 mM | Vmax [1]: 8.38 µmol/min/mg | kcat [1]: 16.6 s⁻¹ | kcat/Km [1]: 22100 M⁻¹ s⁻¹ | Km [2]: 0.48 mM | Vmax [2]: 13.3 µmol/min/mg | kcat [2]: 26.4 s⁻¹ | kcat/Km [2]: 55000 M⁻¹ s⁻¹ | Km [3]: 0.84 mM | Vmax [3]: 7.13 µmol/min/mg | kcat [3]: 14.1 s⁻¹ | kcat/Km [3]: 16800 M⁻¹ s⁻¹ | Km [4]: 0.33 mM | Vmax [4]: 15.2 µmol/min/mg | kcat [4]: 30.1 s⁻¹ | kcat/Km [4]: 91300 M⁻¹ s⁻¹
